{"source": "the supplement of paper PMC6755084", "parents": {"B1": {"name": "F1*; the commonest letter at each place (parent)", "chain": "GAGACCGCAACTGAAAAGTTGTTATCACTTGTCGTAAGACACTTTGGATGGGTTGAAGTTCTGCACGTAGAAGCAAAAGGC"}}, "data": [{"variants_of": "B1", "test": "fraction ligated after 30 min (ligated reads / total reads); higher = more ligase activity", "conditions": "with F1*sub RNA substrate (template-directed ligation), 42 °C", "outline": "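Ligase ribozyme variants were made from oligo-pool templates by PCR amplification, T7 transcription and gel purification. After gel separation, ligated and unligated bands were reverse transcribed with barcoded primers and sequenced on a MiSeq, with core bases filtered at quality ≥20. The fraction ligated for each variant was the number of ligated reads divided by total reads.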", "values": [{"variant": "A48C G55C", "fraction ligated": 0.16}, {"variant": "A48C G55A", "fraction ligated": 0.743}, {"variant": "G47C G50C", "fraction ligated": 0.0335}, {"variant": "G47C G50A", "fraction ligated": 0.059}, {"variant": "G47C G50T", "fraction ligated": 0.202}, {"variant": "G50T G55C", "fraction ligated": 0.143}, {"variant": "G50T G55A", "fraction ligated": 0.455}, {"variant": "G50T G55T", "fraction ligated": 0.123}, {"variant": "G46A G50C", "fraction ligated": 0.0754}, {"variant": "G46A G50T", "fraction ligated": 0.232}, {"variant": "G46A G50A", "fraction ligated": 0.0565}, {"variant": "T54A", "fraction ligated": 0.828}, {"variant": "T54G", "fraction ligated": 0.807}, {"variant": "T54C", "fraction ligated": 0.846}, {"variant": "G47A A57G", "fraction ligated": 0.774}, {"variant": "G47A A57T", "fraction ligated": 0.77}, {"variant": "G47A A57C", "fraction ligated": 0.703}, {"variant": "G47T G55T", "fraction ligated": 0.0451}, {"variant": "G47T G55C", "fraction ligated": 0.0359}, {"variant": "G47T G55A", "fraction ligated": 0.0777}, {"variant": "G46C", "fraction ligated": 0.804}, {"variant": "G46A", "fraction ligated": 0.812}, {"variant": "G46T", "fraction ligated": 0.791}, {"variant": "G46C A48G", "fraction ligated": 0.191}, {"variant": "G46C A48C", "fraction ligated": 0.621}, {"variant": "G46C A48T", "fraction ligated": 0.0498}, {"variant": "T49C A56T", "fraction ligated": 0.0726}, {"variant": "T49C A56G", "fraction ligated": 0.0622}, {"variant": "T49C A56C", "fraction ligated": 0.0481}, {"variant": "G46T G47T", "fraction ligated": 0.0382}, {"variant": "G46T G47C", "fraction ligated": 0.0107}, {"variant": "G46T G47A", "fraction ligated": 0.769}, {"variant": "G46C G55A", "fraction ligated": 0.804}, {"variant": "G46C G55C", "fraction ligated": 0.171}, {"variant": "G46C G55T", "fraction ligated": 0.674}, {"variant": "G47A A48C", "fraction ligated": 0.723}, {"variant": "G47A A48T", "fraction ligated": 0.803}, {"variant": "G47A A48G", "fraction ligated": 0.61}, {"variant": "A48G G50A", "fraction ligated": 0.118}, {"variant": "A48G G50C", "fraction ligated": 0.0771}, {"variant": "A48G G50T", "fraction ligated": 0.235}, {"variant": "G46C G47A", "fraction ligated": 0.798}, {"variant": "G46C G47C", "fraction ligated": 0.0992}, {"variant": "G46C G47T", "fraction ligated": 0.0897}, {"variant": "G47C T49G", "fraction ligated": 0.0669}, {"variant": "G47C T49C", "fraction ligated": 0.0543}, {"variant": "G47C T49A", "fraction ligated": 0.0759}, {"variant": "G50T A56T", "fraction ligated": 0.0827}, {"variant": "G50T A56G", "fraction ligated": 0.0624}, {"variant": "G50T A56C", "fraction ligated": 0.0586}, {"variant": "G55A A56C A57C", "fraction ligated": 0.0438}, {"variant": "G55A A56C A57T", "fraction ligated": 0.151}, {"variant": "G55A A56C A57G", "fraction ligated": 0.0754}, {"variant": "A48G T49A", "fraction ligated": 0.678}, {"variant": "A48G T49C", "fraction ligated": 0.504}, {"variant": "A48G T49G", "fraction ligated": 0.752}, {"variant": "T49A G55T", "fraction ligated": 0.24}, {"variant": "T49A G55A", "fraction ligated": 0.62}, {"variant": "T49A G55C", "fraction ligated": 0.129}, {"variant": "G47T A56T", "fraction ligated": 0.0333}, {"variant": "G47T A56G", "fraction ligated": 0.0352}, {"variant": "G47T A56C", "fraction ligated": 0.0301}, {"variant": "G46T G50A", "fraction ligated": 0.0502}, {"variant": "G46T G50T", "fraction ligated": 0.148}, {"variant": "G46T G50C", "fraction ligated": 0.0286}, {"variant": "T49A G50A", "fraction ligated": 0.281}, {"variant": "T49A G50T", "fraction ligated": 0.769}, {"variant": "T49A G50C", "fraction ligated": 0.502}, {"variant": "G47A G55T", "fraction ligated": 0.221}, {"variant": "G47A G55C", "fraction ligated": 0.422}, {"variant": "G47A G55A", "fraction ligated": 0.775}, {"variant": "G55T A56G", "fraction ligated": 0.806}, {"variant": "G55T A56C", "fraction ligated": 0.014}, {"variant": "G55T A56T", "fraction ligated": 0.378}, {"variant": "T53G", "fraction ligated": 0.831}, {"variant": "T53C", "fraction ligated": 0.849}, {"variant": "T53A", "fraction ligated": 0.834}, {"variant": "G47T T49A", "fraction ligated": 0.0948}, {"variant": "G47T T49G", "fraction ligated": 0.261}, {"variant": "G47T T49C", "fraction ligated": 0.0788}, {"variant": "T45G G46T", "fraction ligated": 0.246}, {"variant": "T45G G46C", "fraction ligated": 0.0668}, {"variant": "T45G G46A", "fraction ligated": 0.032}, {"variant": "A48T G55C", "fraction ligated": 0.0233}, {"variant": "A48T G55T", "fraction ligated": 0.17}, {"variant": "A48T G55A", "fraction ligated": 0.515}, {"variant": "G46T T49C", "fraction ligated": 0.148}, {"variant": "G46T T49G", "fraction ligated": 0.277}, {"variant": "G46T T49A", "fraction ligated": 0.192}, {"variant": "T49A A57T", "fraction ligated": 0.724}, {"variant": "T49A A57C", "fraction ligated": 0.629}, {"variant": "T49A A57G", "fraction ligated": 0.792}, {"variant": "A56C A57G", "fraction ligated": 0.0212}, {"variant": "A56C A57T", "fraction ligated": 0.77}, {"variant": "A56C A57C", "fraction ligated": 0.447}, {"variant": "G50C G55C", "fraction ligated": 0.0221}, {"variant": "G50C G55A", "fraction ligated": 0.112}, {"variant": "G50C G55T", "fraction ligated": 0.0259}, {"variant": "G55T A56T A57G", "fraction ligated": 0.0103}, {"variant": "G55T A56T A57T", "fraction ligated": 0.0137}, {"variant": "G55T A56T A57C", "fraction ligated": 0.00568}, {"variant": "G47A T49G", "fraction ligated": 0.798}, {"variant": "G47A T49A", "fraction ligated": 0.806}, {"variant": "G47A T49C", "fraction ligated": 0.773}, {"variant": "G47A G50A", "fraction ligated": 0.381}, {"variant": "G47A G50T", "fraction ligated": 0.657}, {"variant": "G47A G50C", "fraction ligated": 0.386}, {"variant": "A48G A57G", "fraction ligated": 0.803}, {"variant": "A48G A57C", "fraction ligated": 0.792}, {"variant": "A48G A57T", "fraction ligated": 0.795}, {"variant": "G55T A57C", "fraction ligated": 0.717}, {"variant": "G55T A57G", "fraction ligated": 0.791}, {"variant": "G55T A57T", "fraction ligated": 0.794}, {"variant": "G55A A56T A57T", "fraction ligated": 0.161}, {"variant": "G55A A56T A57G", "fraction ligated": 0.143}, {"variant": "G55A A56T A57C", "fraction ligated": 0.0139}, {"variant": "A48T A56C", "fraction ligated": 0.0454}, {"variant": "A48T A56G", "fraction ligated": 0.0654}, {"variant": "A48T A56T", "fraction ligated": 0.0621}, {"variant": "T45G A57T", "fraction ligated": 0.8}, {"variant": "T45G A57G", "fraction ligated": 0.769}, {"variant": "T45G A57C", "fraction ligated": 0.791}, {"variant": "G55C A56C A57G", "fraction ligated": 0.0246}, {"variant": "G55C A56C A57T", "fraction ligated": 0.0335}, {"variant": "G55C A56C A57C", "fraction ligated": 0.0245}, {"variant": "A48T G50T", "fraction ligated": 0.392}, {"variant": "A48T G50C", "fraction ligated": 0.0873}, {"variant": "A48T G50A", "fraction ligated": 0.158}, {"variant": "G47A", "fraction ligated": 0.788}, {"variant": "G47T", "fraction ligated": 0.37}, {"variant": "G47C", "fraction ligated": 0.236}, {"variant": "G50C A57T", "fraction ligated": 0.0648}, {"variant": "G50C A57G", "fraction ligated": 0.104}, {"variant": "G50C A57C", "fraction ligated": 0.033}, {"variant": "A48C G50A", "fraction ligated": 0.148}, {"variant": "A48C G50T", "fraction ligated": 0.309}, {"variant": "A48C G50C", "fraction ligated": 0.17}, {"variant": "T49G G50T", "fraction ligated": 0.667}, {"variant": "T49G G50A", "fraction ligated": 0.388}, {"variant": "T49G G50C", "fraction ligated": 0.0713}, {"variant": "G46A T49A", "fraction ligated": 0.501}, {"variant": "G46A T49C", "fraction ligated": 0.38}, {"variant": "G46A T49G", "fraction ligated": 0.627}, {"variant": "G47T A48T", "fraction ligated": 0.283}, {"variant": "G47T A48G", "fraction ligated": 0.183}, {"variant": "G47T A48C", "fraction ligated": 0.0847}, {"variant": "G46T A48C", "fraction ligated": 0.127}, {"variant": "G46T A48T", "fraction ligated": 0.144}, {"variant": "G46T A48G", "fraction ligated": 0.352}, {"variant": "T45G A56G", "fraction ligated": 0.775}, {"variant": "T45G A56C", "fraction ligated": 0.187}, {"variant": "T45G A56T", "fraction ligated": 0.79}, {"variant": "G55C A56T A57T", "fraction ligated": 0.0179}, {"variant": "G55C A56T A57C", "fraction ligated": 0.00477}, {"variant": "G55C A56T A57G", "fraction ligated": 0.0294}, {"variant": "G46T A56T", "fraction ligated": 0.237}, {"variant": "G46T A56G", "fraction ligated": 0.187}, {"variant": "G46T A56C", "fraction ligated": 0.136}, {"variant": "T45G T49A", "fraction ligated": 0.0341}, {"variant": "T45G T49C", "fraction ligated": 0.0508}, {"variant": "T45G T49G", "fraction ligated": 0.0893}, {"variant": "G52T", "fraction ligated": 0.695}, {"variant": "G52A", "fraction ligated": 0.827}, {"variant": "G52C", "fraction ligated": 0.726}, {"variant": "G46C G50C", "fraction ligated": 0.0426}, {"variant": "G46C G50T", "fraction ligated": 0.165}, {"variant": "G46C G50A", "fraction ligated": 0.0524}]}]}
